Consider 40 sequences from the nanobody polyreactivity screen of Harvey et al. (2022).

The data set can be described thus: yeast display, Sf9 membrane polyspecificity reagent, FACS + sequencing; frameworks hold sequencing errors. The procedure, abridged:
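A nanobody's polyreactivity label depends on the gate it was sorted from. Yeast display cells were stained with 10% biotinylated, detergent-solubilized Sf9 membrane reagent for 1 hour at 4 °C, enriched on streptavidin microbeads and sorted by FACS. The low and high (top ~1%) gates were set on anti-HA fluorescence for expression and streptavidin fluorescence for reagent binding.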
“QVQLVESGGGLVQAGGSLRLSCAASGRTFYRYAMGWYRQAPGKERELVARIRSGGSTNYADSVKGRFTISRDNAKNTVYLQMNSLKPEDTAVYYCAVDDAYPDRYDYWGQGTQVTVSS”: the “polyreactivity (PSR sort gate)” value was “high polyreactivity”.

Consider “QVQLVESGGGLVQAGGSLRLSCAASGRTFYRYAMGWYRQAPGKEREYVASITRGGGITYYADSVKGRFTISRDNAKNTVYLQMNSLKPEDSAVYYCAARQYGPRYTFYYWGQGTQVTVSS”, for which the “polyreactivity (PSR sort gate)” value is recorded as “high polyreactivity”. For “QVQLVESGGGLVQAGGSLRLSCAASGRTFYRYTMGWYRQAPGKERQLVAGISWRGGTTYYADSVKGRFTISRDNAKNTVYLQMNSLKPEDTAVYYCAAKAGYRYGSLAYYKYDYWGLGTQVTVSS” the value was “high polyreactivity”; for “QVQLVESGGGLVQAGGSLRLSCAASGRTFYSNAMGWYRESPGKERELVAAISRSGGTTYYADSVKGRFTISRDHAKNTVSLLMNSLKPEDTAVYYCNTLRYGTTGKYDYWGQGTQVTVSS”, “high polyreactivity”; for “QVQLVESGGGLVQAGGSLRLSCAASGRTFYSNAMGWYRQAPGKERELVAAISYRGGRTYYADSVKGRFTISRDNAKNTVYLQMNSLKPEDTAVYYSAADAYVLFYGDWYECDYWGQGTQVTVSS”, “high polyreactivity”.

Take “QVQLVESGGGLVQAGGSLRLSCAASGRTFYSNAMGWYRQPPGKERELVAAIRRSGGSTYYADSVKGRFTISRDNAKNTVYLQMNSLKPEDTAVYYCNAPHHRYDWGQGTQVTVSS”: the “polyreactivity (PSR sort gate)” value was “high polyreactivity”. For “QVQLVESGGGLVQAGGSLRLSCAASGRTFYSYAMGGYRQAPGKERELVARITWSGGTYYADSVKGRFTISRDNAKNTVYLQMNSLKPEDTAVYYCAAKYWKWYHYGFGYWGQGTQVTVSS” the value was “high polyreactivity”.

In the case of “QVQLVESGGGLVQAGGSLRLSCAASGRTFYSYAMGWYRQAPGKEREFVAAISVRGVITYYADSVKGRFTISRDNAKNTVYLQMNSLKPEDTAVYDCAADWSGYYTYDYWGQGTQVTVSS”, the “polyreactivity (PSR sort gate)” value is given as “low polyreactivity”.

As to “QVQLVESGGGLVQAGGSLRLSCAASGRTFYSYAMGWYRQAPGKERELVAAISRGGNTYYADSVKGRFTISRDNAKNTVYLQMNSLKPEDTAVYYCAVVRVTYYASIYHRGYDYWGQGTQVTVSS”, the “polyreactivity (PSR sort gate)” value is reported as “low polyreactivity”.

As for “QVQLVESGGGLVQAGGSLRLSCAASGRTFYSYAMGWYRQAPGKERELVAAITWRGVRTYYADSVKGRFTISRDNAKNTVYLQMNSLKPEDTAVYYCAAGGVRTRSWDTSLINRYGYWGQGTQVTVSS”, the “polyreactivity (PSR sort gate)” value was “high polyreactivity”. For “QVQLVESGGGLVQAGGSLRLSCAASGRTFYSYAMGWYRQAPGKERELVASISSSGASTYYADSVKGRFTISRDNAKNTVYLQMNSLKPEDTAVYYCNAVWRTSFITIYGFDYWGQGTQVTVSS”, the “polyreactivity (PSR sort gate)” value is listed as “high polyreactivity”. For the sequence “QVQLVESGGGLVQAGGSLRLSCAASGRTFYSYAMGWYRQAPGKERELVATITNGDTTNYADSVKGRFTISRDNAKNTVYLQMNSLKPEDTAVYYCAKDISPGYDEYDYWGQGTQVTVSS”, the “polyreactivity (PSR sort gate)” value is recorded as “low polyreactivity”.

Take “QVQLVESGGGLVQAGGSLRLSCAASGRTFYTNAMGWYRQAPGKERELSTNYADSVKGRFTISRDNAKNTVYLQMNSLKPEDTAVYYCNADGFLRFAGFDYWGQGTQVTVSS”: the “polyreactivity (PSR sort gate)” value is “low polyreactivity”. The result for “QVQLVESGGGLVQAGGSLRLSCAASGRTFYTNAMGWYRQARGKERELVAGISWGDGNTYYADSVKWRFTISRDNAKNTVYLQMNSLKPEDTALYYCAVTYIILWSYSHTEFDYWGQGNQVTVSS” reads “low polyreactivity”; that for “QVQLVESGGGLVQAGGSLRLSCAASGRTFYTYAMGWYRQAPGKEREFVAAIDWSGGTTYYADSVKGRFTISRDNAKNTVFLQINSLKPEDTAVYYCAADDSFYRQYYYRAHGDYWGQGYQVTVSS”, “low polyreactivity”.

Take “QVQLVESGGGLVQAGGSLRLSCAASGRTFYVNARGWYREAPGKERELVATISRGTRTYYADSVKGRFTISRDNAKNTVYLQMNSLIPEDTAVYYCAADARPYESPYYYWGQGTQVTVSS”: the “polyreactivity (PSR sort gate)” value is given as “high polyreactivity”.

On to “QVQLVESGGGLVQAGGSLRLSCAASGRTFYVNTMGWYRQAPGKEREFVAAISYSGGRTYYADSVKGRFTISRDNAKNTVYLQMNSLKPEDTAVYYCATRINSWSAYTKYDYWGQGTQVTVSS”, for which the “polyreactivity (PSR sort gate)” value is given as “high polyreactivity”. The result for “QVQLVESGGGLVQAGGSLRLSCAASGRTFYVNTMGWYRQAPGKEREFVAAITWRDGSTYYADSVKGRFTISRDNAKNTVYLQMNSLKPEDTAVYYCAARNSHDGYYDEYYYWGQGTQVTVSS” reads “low polyreactivity”; that for “QVQLVESGGGLVQAGGSLRLSCAASGRTFYVYAMGWYRQAPGKERELVAAITKNGGNTYYADSVKGRFTISRDNAKNTVYLQMNSLKPEDTAVYYCAADKQGFLISYTGYDYWGQGTQVTVSS”, “low polyreactivity”; that for “QVQLVESGGGLVQAGGSLRLSCAASGRTFYVYTMGLYRQAPGKELELVAAISSSGGSTYYADSVKGRFTISRDNAKNTVYLQMNSLKPEDTAVYYCNSQWSLTRYGYWGQGTQVTVSS”, “high polyreactivity”. For “QVQLVESGGGLVQAGGSLRLSCAASGRTFYVYVMGWYRQAPGKEREFVAAINYGSTYYADSVKGRFTISRDNAKNTVYLQMNSLKPEDTAVYYCATRSGYDSVYYFYTLWYYYWGHGTQVTVSS” the value was “low polyreactivity”. For the sequence “QVQLVESGGGLVQAGGSLRLSCAASGRTFYWYALGWYRQAPGKERELVAAITKSGGSTYYADSVKGRFTISRDNAKNTVYLQMNSLKPEDTAVYYWAARYLYLLYYWGQGTQVTVSS”, the “polyreactivity (PSR sort gate)” value is “high polyreactivity”. In the case of “QVQLVESGGGLVQAGGSLRLSCAASGRTFYWYGMGWYRQAPGKERELVATISRGSRTYYADSVKGRFTISRDNAKNTVYLQMNSLKPEDTAVYYCNADTWPGEYNGYFSGAYDYWGQGTQVTVSS”, the “polyreactivity (PSR sort gate)” value is reported as “high polyreactivity”.

Consider “QVQLVESGGGLVQAGGSLRLSCAASGRTFYYNAMGWSRQATGKERELVAAISGRAGSTYYADSVKGRYTISRDNAKNTVYLQMNSLKPEDTAVYYCNAVRYKYTGRFGYWGQGTQVTVSS”, for which the “polyreactivity (PSR sort gate)” value is on record as “high polyreactivity”. The result for “QVQLVESGGGLVQAGGSLRLSCAASGRTFYYNAMGWYRQAPGKEMELVAVITRGSTYYADSVKGRFTISRDNAKNTVYLQMNSLKPEDTAVYYCAKYRHYHRGYDYWGQGTQVTVSS” reads “high polyreactivity”; that for “QVQLVESGGGLVQAGGSLRLSCAASGRTFYYNAMGWYRQAPGKERELVARITSSGGSTYYADSVKGRFTISRDNAKSTVYLQMNSLKPEDTAVSYCAAGRSRYLWFGRDFDYWGQGTQVTVSS”, “low polyreactivity”; that for “QVQLVESGGGLVQAGGSLRLSCAASGRTFYYNAMGWYRQAPGKERELVASISWSGTSTYYADSVKGRFTISRDNAKNTVYLQMNSLKPEDTAVYYCATDSYWRQDLYRYEYWGQGTQVTVSS”, “high polyreactivity”.

“QVQLVESGGGLVQAGGSLRLSCAASGRTFYYNDMGWYRQAPGKERELVAAISWSGVSTSYADSVKGRFTISRDNAKNTVYLQMNSLKPEDTAVYYCAADNDGWYFHITEYDYWGQGTQVTVSS”: the “polyreactivity (PSR sort gate)” value is “low polyreactivity”.

“QVQLVESGGGLVQAGGSLRLSCAASGRTFYYNDMGWYRQAPGKERELVATISSGGSTYYADSVKGRFTISRDNAKNTVYLQMNSLKPEDTAVYYCAKRRRYDGWYAGPLYKYDYWGQGTQVTVSS”: the “polyreactivity (PSR sort gate)” value is reported as “low polyreactivity”. With “QVQLVESGGGLVQAGGSLRLSCAASGRTFYYYAMAWYRPAPGKERELVAAISWSGGRTYYADSVKGRFTISRDNAKNTVYLLMNSLIPVDTAVYYCNAEPPRGYTVSSGGEMDYWGQGTQVTVSS”, the “polyreactivity (PSR sort gate)” value is reported as “low polyreactivity”.

With “QVQLVESGGGLVQAGGSLRLSCAASGRTFYYYAMGWYREAPGKERELVAAINSGVTTSYADSVKGRFTISRDNAKNTVYLQMNSLKPEDTAVYYCAARTFSAFWRGGYDYWGQGTQVTVSS”, the “polyreactivity (PSR sort gate)” value was “low polyreactivity”. With “QVQLVESGGGLVQAGGSLRLSCAASGRTFYYYAMGWYRHAPGKERELVAAISIGGITYADSVKGRFTISRDNAKNTVYLQMNSLKPEDTAVYYCAATARQSRGRFYWGQGTQVTVSS”, the “polyreactivity (PSR sort gate)” value is reported as “low polyreactivity”.

For “QVQLVESGGGLVQAGGSLRLSCAASGRTFYYYAMGWYRQAPGKEMELGAAIRRSGSSTYYADSVKGRFTISRDNAKNTVYLQMNSLKPEDTAVYYCAAAVYQRARYYWGQGTQVTVSS”, the “polyreactivity (PSR sort gate)” value is “high polyreactivity”. On to “QVQLVESGGGLVQAGGSLRLSCAASGRTFYYYAMGWYRQAPGKERELVAAINSGGTTSYADSVKGRFTISRDNAKNTVYFQMNSLKPEDTAVYYCAASDYGFPEYLTAYFYWGQGTLVTVSS”, for which the “polyreactivity (PSR sort gate)” value is on record as “low polyreactivity”. Consider “QVQLVESGGGLVQAGGSLRLSCAASGRTFYYYAMGWYRQAPGKERELVAAIRWRATSTFYADSVKGRFTISRDNAKNTVYLQMNSLKPEDTAVYYCATRGRWGYSGRSQGYSIYNYWGQGTKVTVSS”, for which the “polyreactivity (PSR sort gate)” value is “high polyreactivity”. The result for “QVQLVESGGGLVQAGGSLRLSCAASGRTFYYYAMGWYRQAPGKERELVAAISGSGTNTYYADSVKGRFTISRDNAKNTVYLQMNSLKPEDTAVYYCAAEYFGFYTDGGVFDLYYWGQGTQVTVSS” reads “low polyreactivity”; that for “QVQLVESGGGLVQAGGSLRLSCAASGRTFYYYAMGWYRQAPGKERELVAAISWTGGNTYYADSVKGRFTISRDNAKNTVYLQMNSLKPEDTAVYYCAKQTRGYVRGPMYYWGQGTQVTVSS”, “high polyreactivity”. On to “QVQLVESGGGLVQAGGSLRLSCAASGRTFYYYAMGWYRQAPGKERELVAAITGSGANTYYADSVKGRFTISRDNAKNTVYLQMNSLKPEDTAVYYCNTRTLVAMGYWGQGTQVTVSS”, for which the “polyreactivity (PSR sort gate)” value is given as “high polyreactivity”. The result for “QVQLVESGGGLVQAGGSLRLSCAASGRTFYYYAMGWYRQAPGKEREYVASITWRGGRTYYADSVKGRFTISRDNAKNTVYLQMNSLKPEDTAVYYCAADGSYAIGGYGYWGQGTQVTVSS” reads “high polyreactivity”; that for “QVQLVESGGGLVQAGGSLRLSCAASGRTFYYYAMGWYRQPPGKERELVAAIRWSTGSTYYADSVKGRFTISRVNAQITVYLQMNSLKPEDTAVYYCAADTWYIQWGYYWGQGTQVTVSS”, “low polyreactivity”.
